# Reference: PMC4312099 (Nature, 2014)
# Molecular target: recombinant human core Mitotic Checkpoint Complex (untagged CDC20, SBP-BUBR1, His6-MAD2) (human, UniProt Q12834;O60566;Q13257)
# Test: pull-down
# recombinant human core Mitotic Checkpoint Complex (untagged CDC20, SBP-BUBR1, His6-MAD2), sequence (O60566 whole entry, chain 2 of 2): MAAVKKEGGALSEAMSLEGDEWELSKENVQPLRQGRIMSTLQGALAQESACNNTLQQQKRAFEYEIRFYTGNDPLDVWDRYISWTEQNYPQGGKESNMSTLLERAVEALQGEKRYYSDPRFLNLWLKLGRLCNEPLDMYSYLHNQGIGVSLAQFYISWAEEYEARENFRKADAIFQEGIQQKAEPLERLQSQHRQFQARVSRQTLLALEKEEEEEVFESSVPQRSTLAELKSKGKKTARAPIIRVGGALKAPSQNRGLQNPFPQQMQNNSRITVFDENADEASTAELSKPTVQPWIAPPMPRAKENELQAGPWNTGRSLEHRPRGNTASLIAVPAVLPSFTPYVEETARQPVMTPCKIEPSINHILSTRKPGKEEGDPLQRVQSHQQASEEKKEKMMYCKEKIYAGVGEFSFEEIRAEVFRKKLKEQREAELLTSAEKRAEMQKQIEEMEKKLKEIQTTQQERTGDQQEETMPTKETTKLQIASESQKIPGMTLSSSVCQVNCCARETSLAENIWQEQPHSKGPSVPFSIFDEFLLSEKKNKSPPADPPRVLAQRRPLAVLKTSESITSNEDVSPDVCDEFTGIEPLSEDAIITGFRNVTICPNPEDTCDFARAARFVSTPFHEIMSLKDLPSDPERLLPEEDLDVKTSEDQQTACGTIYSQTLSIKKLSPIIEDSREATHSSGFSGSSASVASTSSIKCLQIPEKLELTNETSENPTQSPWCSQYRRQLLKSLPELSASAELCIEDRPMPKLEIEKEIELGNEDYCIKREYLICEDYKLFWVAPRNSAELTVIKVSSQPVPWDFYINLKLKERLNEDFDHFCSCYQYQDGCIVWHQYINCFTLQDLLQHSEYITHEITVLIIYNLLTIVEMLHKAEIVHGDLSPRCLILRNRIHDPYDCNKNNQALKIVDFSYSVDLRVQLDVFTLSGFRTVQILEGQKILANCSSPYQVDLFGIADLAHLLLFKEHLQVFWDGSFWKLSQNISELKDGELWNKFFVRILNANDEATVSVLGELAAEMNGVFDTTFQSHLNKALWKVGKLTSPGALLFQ
# recombinant human core Mitotic Checkpoint Complex (untagged CDC20, SBP-BUBR1, His6-MAD2), sequence (Q13257 whole entry, chain 3 of 2): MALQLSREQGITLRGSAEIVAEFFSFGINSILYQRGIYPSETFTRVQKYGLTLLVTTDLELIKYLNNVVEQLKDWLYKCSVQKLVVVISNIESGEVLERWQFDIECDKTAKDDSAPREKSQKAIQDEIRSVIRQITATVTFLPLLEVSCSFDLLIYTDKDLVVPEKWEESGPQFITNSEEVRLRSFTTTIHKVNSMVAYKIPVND
binder,measurement,value
recombinant His6-tagged CDC20 ΔKILR (K129ILR/AAAA) mutant (natural protein) MAQFAFESDLHSLLQLDAPIPNAPPARWQRKAKEAAGPAPSPMRAANRSHSAGRTPGRTPGKSSSKVQTTPSKPGGDRYIPHRSAAQMEVASFLLSKENQPENSQTPTKKEHQKAWALNLNGFDVEEAAAAALSGKPQNAPEGYQNRLKVLYSQKATPGSSRKTCRYIPSLPDRILDAPEIRNDYYLNLVDWSSGNVLAVALDNSVYLWSASSGDILQLLQMEQPGEYISSVAWIKEGNYLAVGTSSAEVQLWDVQQQKRLRNMTSHSARVGSLSWNSYILSSGSRSGHIHHHDVRVAEHHVATLSGHSQEVCGLRWAPDGRHLASGGNDNLVNVWPSAPGEGGWVPLQTFTQHQGAVKAVAWCPWQSNVLATGGGTSDRHIRIWNVCSGACLSAVDAHSQVCSILWSPHYKELISGHGFAQNQLVIWKYPTMAKVAELKGHTSRVLSLTMSPDGATVASAAADETLRLWRCFELDPARRREREKASAAKSSLIHQGIR,binding result,binds
